Reference: the supplement of paper PMC9732359
± gives the uncertainty stated by the source.

Assay: protein stability index of a GFP-peptide fusion (yeast GPS) (PSI 1-4); higher = more stable; sorted into four equal gates, so the index is relative within each strain
In short: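 Peptides tiling yeast proteins in 17-residue segments were fused downstream of GFP, with Cherry expressed from the same plasmid. As a pooled library in yeast, mid-log cultures grown in leucine-free medium were sorted into four equal gates by GFP/Cherry fluorescence ratio. Gate plasmids were PCR-amplified and Illumina-sequenced, and barcodes linked reads to strains. Each peptide received a protein stability index equal to the sum of each gate's read frequency times its gate number.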

AKEVKVLYHTSGAITFV [PRP8]
protein stability index (doa10∆): 2.12 ± 0.055 | protein stability index (pdr5∆): 2.5 ± 0.064 | protein stability index (san1∆): 2.58 ± 0.055 | protein stability index (ubr1∆): 2.72 ± 0.068

GKIVSQRGKWNLKYLDN [RGR1]
protein stability index (doa10∆): 2.28 ± 0.074 | protein stability index (pdr5∆): 2.64 ± 0.068 | protein stability index (san1∆): 2.37 ± 0.091 | protein stability index (ubr1∆): 2.17 ± 0.06

PTQTVAELDLMSGILHC [RPN6]
protein stability index (doa10∆): 2.8 ± 0.06 | protein stability index (pdr5∆): 3.07 ± 0.054 | protein stability index (san1∆): 2.95 ± 0.047 | protein stability index (ubr1∆): 3.1 ± 0.051

ASSPIILEEGSSGMGAF [RPN10]
protein stability index (doa10∆): 3.04 ± 0.079 | protein stability index (pdr5∆): 3.04 ± 0.083 | protein stability index (san1∆): 2.99 ± 0.089 | protein stability index (ubr1∆): 3.14 ± 0.059

LGWIHTQTEELKFMAAS [PRP8]
protein stability index (doa10∆): 2.59 ± 0.087 | protein stability index (pdr5∆): 2.62 ± 0.077 | protein stability index (san1∆): 2.64 ± 0.063 | protein stability index (ubr1∆): 2.71 ± 0.063

GSNQKPKYEPPVQSKFG [RPT2]
protein stability index (doa10∆): 2.94 ± 0.13 | protein stability index (pdr5∆): 3 ± 0.15 | protein stability index (san1∆): 2.34 ± 0.22 | protein stability index (ubr1∆): 3.09 ± 0.099

NTEEVNRLEKEQSVKTQ [LIN1]
protein stability index (doa10∆): 2.21 ± 0.2 | protein stability index (ubr1∆): 1.74 ± 0.27

LVEPSKVGQFDQVLNLC [FAS1]
protein stability index (doa10∆): 2.35 ± 0.13 | protein stability index (pdr5∆): 2.41 ± 0.09 | protein stability index (san1∆): 2.78 ± 0.11 | protein stability index (ubr1∆): 2.73 ± 0.16

IESIRSCKDSQLKWAQN [YIL149C/MLP2]
protein stability index (doa10∆): 2.78 ± 0.064 | protein stability index (pdr5∆): 3.01 ± 0.069 | protein stability index (san1∆): 2.75 ± 0.053 | protein stability index (ubr1∆): 2.95 ± 0.053

IAKSRYWYFLQKLHKVK [RPL20A]
protein stability index (doa10∆): 3.06 ± 0.11 | protein stability index (pdr5∆): 3.06 ± 0.087 | protein stability index (san1∆): 2.79 ± 0.075 | protein stability index (ubr1∆): 3.03 ± 0.084

LALENGEITKTENEKFI [NUT1]
protein stability index (doa10∆): 3.28 ± 0.15 | protein stability index (pdr5∆): 3.45 ± 0.11 | protein stability index (san1∆): 3.44 ± 0.066 | protein stability index (ubr1∆): 3.3 ± 0.14

EIDHQEYSPEILQIREE [RRP6]
protein stability index (doa10∆): 3.19 ± 0.067 | protein stability index (pdr5∆): 3.06 ± 0.069 | protein stability index (san1∆): 3.21 ± 0.094 | protein stability index (ubr1∆): 3.18 ± 0.048

VPIERVAQLKPFFKYID [RPC37]
protein stability index (doa10∆): 2.54 ± 0.062 | protein stability index (pdr5∆): 2.24 ± 0.054 | protein stability index (san1∆): 2.34 ± 0.054 | protein stability index (ubr1∆): 2.71 ± 0.052

LGRVRNHFIFNVESAGA [RPC40]
protein stability index (doa10∆): 1.38 ± 0.062 | protein stability index (pdr5∆): 1.5 ± 0.069 | protein stability index (san1∆): 1.62 ± 0.09 | protein stability index (ubr1∆): 1.27 ± 0.065

ISMILRNISFSDNNSRI [SWI1]
protein stability index (doa10∆): 3.02 ± 0.06 | protein stability index (pdr5∆): 2.86 ± 0.059 | protein stability index (san1∆): 2.77 ± 0.058 | protein stability index (ubr1∆): 3.08 ± 0.04

TMADAVRELGILCIFEG [SEC65]
protein stability index (doa10∆): 2.52 ± 0.06 | protein stability index (pdr5∆): 2.05 ± 0.071 | protein stability index (san1∆): 2.62 ± 0.063 | protein stability index (ubr1∆): 1.45 ± 0.062

LTFVSVDEELGPSIYKT [SCL1]
protein stability index (doa10∆): 2.37 ± 0.065 | protein stability index (pdr5∆): 1.94 ± 0.05 | protein stability index (san1∆): 3.02 ± 0.054 | protein stability index (ubr1∆): 2.99 ± 0.067

TGIFMAMHYSSNIELAF [COB]
protein stability index (doa10∆): 1.3 ± 0.065 | protein stability index (pdr5∆): 1.51 ± 0.063 | protein stability index (san1∆): 1.24 ± 0.12 | protein stability index (ubr1∆): 1.5 ± 0.078

AMREVNDEKRVKEEYDI [YIL149C/MLP2]
protein stability index (doa10∆): 2.62 ± 0.25 | protein stability index (pdr5∆): 2.57 ± 0.17

DTVEEKKEEKLNIGKNF [SIR4]
protein stability index (doa10∆): 2.42 ± 0.16 | protein stability index (pdr5∆): 2.71 ± 0.25 | protein stability index (san1∆): 3.34 ± 0.2 | protein stability index (ubr1∆): 2.42 ± 0.13

NSIDSTSRIELELKNIG [ECM29]
protein stability index (doa10∆): 3.24 ± 0.087 | protein stability index (pdr5∆): 3.15 ± 0.062 | protein stability index (san1∆): 2.8 ± 0.05 | protein stability index (ubr1∆): 2.72 ± 0.044

PLQNNLPELWALLNFVL [SNF2]
protein stability index (doa10∆): 2.69 ± 0.051 | protein stability index (pdr5∆): 2.64 ± 0.045 | protein stability index (san1∆): 2.56 ± 0.057 | protein stability index (ubr1∆): 2.46 ± 0.037

NQKTSAVAALTEVRAED [RPL8A]
protein stability index (doa10∆): 2.92 ± 0.082 | protein stability index (pdr5∆): 2.94 ± 0.071 | protein stability index (san1∆): 3.18 ± 0.058 | protein stability index (ubr1∆): 2.68 ± 0.087

DSIPYPQIVKLFDISRE [ECM29]
protein stability index (doa10∆): 1.65 ± 0.065 | protein stability index (pdr5∆): 1.3 ± 0.057 | protein stability index (san1∆): 1.23 ± 0.073 | protein stability index (ubr1∆): 2.08 ± 0.039

MGRVRTKTVKRASKALI [RPS17A]
protein stability index (doa10∆): 3.05 ± 0.12 | protein stability index (pdr5∆): 1.87 ± 0.086 | protein stability index (san1∆): 3.1 ± 0.069 | protein stability index (ubr1∆): 1.52 ± 0.06

LATYCPRVQGFYVPQAR [GRR1]
protein stability index (doa10∆): 2.44 ± 0.078 | protein stability index (pdr5∆): 2.4 ± 0.069 | protein stability index (san1∆): 2.03 ± 0.09 | protein stability index (ubr1∆): 3 ± 0.049

RTMDDIKDSVREVGTKF [ECM29]
protein stability index (doa10∆): 3.35 ± 0.11 | protein stability index (pdr5∆): 3.47 ± 0.11 | protein stability index (san1∆): 3.27 ± 0.088 | protein stability index (ubr1∆): 3.29 ± 0.072

IGTKRFDSEKSGDREVQ [RPT5]
protein stability index (doa10∆): 3.15 ± 0.19 | protein stability index (pdr5∆): 3.51 ± 0.2 | protein stability index (san1∆): 2.8 ± 0.26 | protein stability index (ubr1∆): 3.41 ± 0.12

SNILLNSLTKYPDLKAF [MED1]
protein stability index (doa10∆): 1.98 ± 0.14 | protein stability index (pdr5∆): 2.41 ± 0.085 | protein stability index (san1∆): 2.24 ± 0.2 | protein stability index (ubr1∆): 1.71 ± 0.094

PSQGVHYKVPTDTSTTA [MED6]
protein stability index (doa10∆): 2.34 ± 0.043 | protein stability index (pdr5∆): 2.84 ± 0.046 | protein stability index (san1∆): 2.37 ± 0.06 | protein stability index (ubr1∆): 2.76 ± 0.037

KSTYRTPNFDDVLKENN [RIP1]
protein stability index (doa10∆): 1.54 ± 0.087 | protein stability index (pdr5∆): 1.45 ± 0.12 | protein stability index (san1∆): 1.38 ± 0.14 | protein stability index (ubr1∆): 2.1 ± 0.079

HNAGPVAGAGAASGAAA [RPP1B]
protein stability index (doa10∆): 3.11 ± 0.11 | protein stability index (pdr5∆): 2.24 ± 0.05 | protein stability index (san1∆): 2.22 ± 0.12 | protein stability index (ubr1∆): 2.02 ± 0.059

ANNGAAFSPLTTTRIQS [MED2]
protein stability index (doa10∆): 2.67 ± 0.081 | protein stability index (pdr5∆): 2.91 ± 0.06 | protein stability index (san1∆): 2.65 ± 0.066 | protein stability index (ubr1∆): 2.66 ± 0.044

RRAAYGVVRYVMESGAK [RPS3]
protein stability index (doa10∆): 1.5 ± 0.1 | protein stability index (pdr5∆): 1.83 ± 0.13 | protein stability index (ubr1∆): 1.84 ± 0.094

NEQLTLLSKKHGQLKLS [RPN5]
protein stability index (doa10∆): 1.6 ± 0.066 | protein stability index (pdr5∆): 2.34 ± 0.062 | protein stability index (san1∆): 1.83 ± 0.081 | protein stability index (ubr1∆): 2.4 ± 0.079

VPTIGVVNSNFAKEHNA [YJR042W/NUP85]
protein stability index (doa10∆): 2.51 ± 0.072 | protein stability index (pdr5∆): 2.61 ± 0.075 | protein stability index (san1∆): 2.59 ± 0.058 | protein stability index (ubr1∆): 2.54 ± 0.034

SLPRFSKPVLIVGQKNL [DIS3]
protein stability index (doa10∆): 2.2 ± 0.089 | protein stability index (pdr5∆): 2.42 ± 0.074 | protein stability index (san1∆): 1.77 ± 0.082 | protein stability index (ubr1∆): 1.7 ± 0.12

GSVIQTHIAESAKEIAK [MCD1]
protein stability index (doa10∆): 2.91 ± 0.09 | protein stability index (pdr5∆): 2.89 ± 0.08 | protein stability index (san1∆): 3 ± 0.048 | protein stability index (ubr1∆): 3.06 ± 0.058

EKAVEEKPAVKSYASLL [RPT3]
protein stability index (doa10∆): 2.89 ± 0.06 | protein stability index (pdr5∆): 3.02 ± 0.053 | protein stability index (san1∆): 2.92 ± 0.052 | protein stability index (ubr1∆): 2.96 ± 0.049

DEGGAKSLLLNTLNIDN [BRN1]
protein stability index (doa10∆): 3.19 ± 0.077 | protein stability index (pdr5∆): 3.16 ± 0.097 | protein stability index (san1∆): 3.1 ± 0.083 | protein stability index (ubr1∆): 3.38 ± 0.075

KVLQLLRLTRINSGTFV [RPL7A]
protein stability index (doa10∆): 1.8 ± 0.097 | protein stability index (pdr5∆): 1.62 ± 0.093 | protein stability index (san1∆): 1.2 ± 0.17 | protein stability index (ubr1∆): 1.07 ± 0.065

KQFVVDVLHPNRANVSK [RPS24A]
protein stability index (doa10∆): 2.94 ± 0.073 | protein stability index (pdr5∆): 3.24 ± 0.082 | protein stability index (san1∆): 2.96 ± 0.079 | protein stability index (ubr1∆): 3.07 ± 0.05

KRPRSRTLTAVHDKVLE [RPS7B]
protein stability index (doa10∆): 3.36 ± 0.17 | protein stability index (pdr5∆): 2.99 ± 0.13 | protein stability index (san1∆): 3.02 ± 0.07 | protein stability index (ubr1∆): 2.08 ± 0.24

DLQRTQTLSEKEYQCSA [YIL149C/MLP2]
protein stability index (doa10∆): 2.98 ± 0.1 | protein stability index (pdr5∆): 2.97 ± 0.091 | protein stability index (san1∆): 3.11 ± 0.069 | protein stability index (ubr1∆): 2.96 ± 0.069

NNYKDLLAVAIAASYHY [RPP0]
protein stability index (doa10∆): 1.4 ± 0.065 | protein stability index (pdr5∆): 1.95 ± 0.12 | protein stability index (san1∆): 1.39 ± 0.15 | protein stability index (ubr1∆): 1.64 ± 0.068

YKKIPLLGPTLEDHTPP [QCR10]
protein stability index (doa10∆): 2.34 ± 0.05 | protein stability index (pdr5∆): 2.59 ± 0.057 | protein stability index (san1∆): 2.42 ± 0.083 | protein stability index (ubr1∆): 2.76 ± 0.029

FGHIMEDFQVLRLGRGI [YDL088C/ASM4]
protein stability index (doa10∆): 3.04 ± 0.066 | protein stability index (pdr5∆): 2.96 ± 0.055 | protein stability index (san1∆): 2.49 ± 0.068 | protein stability index (ubr1∆): 2.96 ± 0.044

ELNVEKLNTFNLQTFTH [SRP72]
protein stability index (doa10∆): 2.48 ± 0.2 | protein stability index (pdr5∆): 2.33 ± 0.15 | protein stability index (san1∆): 1.9 ± 0.13 | protein stability index (ubr1∆): 2.42 ± 0.15

YVISLSYTDAQDKSKKI [YMR129W/POM152]
protein stability index (doa10∆): 2.67 ± 0.12 | protein stability index (pdr5∆): 2.95 ± 0.082 | protein stability index (san1∆): 2.9 ± 0.072 | protein stability index (ubr1∆): 2.68 ± 0.06

LVLLELVSSGDRFIELI [YML103C/NUP188]
protein stability index (doa10∆): 2.56 ± 0.1 | protein stability index (pdr5∆): 2.08 ± 0.07 | protein stability index (san1∆): 2.21 ± 0.068 | protein stability index (ubr1∆): 2.3 ± 0.088

ISAKDMGQGLCNNINKG [BRR2]
protein stability index (doa10∆): 3.13 ± 0.14 | protein stability index (pdr5∆): 3.25 ± 0.22 | protein stability index (san1∆): 3.12 ± 0.12 | protein stability index (ubr1∆): 3.26 ± 0.24

NKGELETQPGCNEEQTL [RPO31]
protein stability index (doa10∆): 3.21 ± 0.16 | protein stability index (pdr5∆): 3.38 ± 0.12 | protein stability index (san1∆): 3.21 ± 0.2 | protein stability index (ubr1∆): 3.2 ± 0.082
